Experimental data as given in the Human Domainome abundance scans (Beltran et al. 2025).
± gives the uncertainty stated by the source.

B1: CD2-associated protein, residues 271 to 331; numbered along this chain, Q9Y5K6 (parent)
chain: KEYCRTLFAYEGTNEDELTFKEGEIIHLISKETGEAGWWRGELNGKEGVFPDNFAVQINEL

Variants of: B1
Test: abundance fitness (aPCA) (normalised: wild type 0, dead -1); higher = more abundant; growth selection in yeast, the domain comes from the species named
Conditions: Homo sapiens

Abundance fitness: each site, then its substitutions
N59: D -0.145 ± 0.13
G45: R -0.617 ± 0.087 | W -0.829 ± 0.22 | Q -0.612 ± 0.1 | L -0.858 ± 0.079 | V -0.845 ± 0.083 | P -0.784 ± 0.11 | K -0.438 ± 0.088 | T -0.746 ± 0.13 | E -0.448 ± 0.086 | C -0.322 ± 0.15 | N -0.359 ± 0.21 | I -0.453 ± 0.2 | A -0.437 ± 0.071 | S -0.376 ± 0.064 | F -0.408 ± 0.18 | M -0.695 ± 0.12 | H -0.343 ± 0.19
V56: Q -0.226 ± 0.18 | T 0.033 ± 0.11 | R -0.161 ± 0.054 | E 0.003 ± 0.2 | F -0.456 ± 0.12 | G -0.173 ± 0.18 | I -0.327 ± 0.17 | S -0.243 ± 0.086 | Y -0.409 ± 0.16 | W -0.434 ± 0.14 | P -0.567 ± 0.25 | C -0.314 ± 0.13 | H -0.317 ± 0.18 | L -0.264 ± 0.088 | M -0.073 ± 0.1 | K -0.05 ± 0.085 | N -0.339 ± 0.11
E47: M -0.301 ± 0.21 | R -0.02 ± 0.076 | G -0.479 ± 0.081 | T -0.029 ± 0.09 | I 0.053 ± 0.061 | Q 0.014 ± 0.13 | A -0.248 ± 0.067 | P -0.752 ± 0.14 | D -0.347 ± 0.081 | V -0.029 ± 0.055 | S -0.052 ± 0.048 | Y -0.171 ± 0.059 | L -0.241 ± 0.074 | W -0.601 ± 0.15 | N -0.205 ± 0.062 | H -0.154 ± 0.084 | C -0.104 ± 0.068 | F -0.198 ± 0.073
I58: H -0.234 ± 0.09 | Y -0.249 ± 0.09 | C -0.112 ± 0.096 | N -0.378 ± 0.13 | L -0.026 ± 0.052 | P -0.431 ± 0.11 | S -0.233 ± 0.071 | D 0 ± 0.14 | F -0.126 ± 0.11 | A -0.151 ± 0.071 | V 0.005 ± 0.055 | T -0.136 ± 0.074 | R -0.417 ± 0.051 | W -0.213 ± 0.065 | Q -0.247 ± 0.088
G48: M -0.947 ± 0.15 | R -0.856 ± 0.059 | W -0.949 ± 0.074 | H -0.749 ± 0.13 | A -0.65 ± 0.093 | I -0.725 ± 0.2 | P -0.932 ± 0.12 | N -0.998 ± 0.3 | C -1.01 ± 0.15 | K -0.746 ± 0.17 | F -1.05 ± 0.27 | Q -0.93 ± 0.16 | S -0.843 ± 0.071 | Y -1.18 ± 0.34 | E -0.688 ± 0.08 | V -0.864 ± 0.087 | L -0.753 ± 0.061 | T -1.07 ± 0.15 | D -0.695 ± 0.15
N44: P -1.14 ± 0.2 | I -0.787 ± 0.11 | D -0.113 ± 0.065 | F -0.449 ± 0.062 | C -0.273 ± 0.065 | L -0.287 ± 0.048 | G -0.029 ± 0.08 | Y -0.363 ± 0.084 | E -0.043 ± 0.11 | H -0.03 ± 0.058 | V -0.791 ± 0.092 | W -0.568 ± 0.25 | R -0.073 ± 0.059 | T -0.518 ± 0.064 | A -0.152 ± 0.062 | Q -0.507 ± 0.35 | M -0.172 ± 0.23
D52: Y -0.085 ± 0.17 | V -0.16 ± 0.067 | A 0.053 ± 0.1 | N 0.008 ± 0.28 | L -0.055 ± 0.059 | C 0.009 ± 0.12 | R -0.043 ± 0.076 | Q -0.02 ± 0.17 | I 0.077 ± 0.46 | F -0.142 ± 0.13 | P -0.081 ± 0.12 | W -0.186 ± 0.12 | E 0.043 ± 0.083 | S 0.039 ± 0.065 | K -0.02 ± 0.12 | M 0.077 ± 0.12
K46: V -0.033 ± 0.068 | M -0.235 ± 0.084 | C -0.056 ± 0.27 | E -0.348 ± 0.13 | S -0.338 ± 0.062 | D -0.39 ± 0.19 | R 0.012 ± 0.056 | H 0.083 ± 0.12 | L -0.223 ± 0.054 | P -1.05 ± 0.19 | I -0.309 ± 0.13 | Q -0.265 ± 0.086 | Y -0.34 ± 0.12 | G -0.924 ± 0.24 | A -0.134 ± 0.091 | N -0.286 ± 0.18 | T -0.273 ± 0.074
V49: A -0.319 ± 0.065 | T -0.129 ± 0.083 | S -0.297 ± 0.06 | H -0.482 ± 0.14 | Y -0.022 ± 0.1 | C -0.11 ± 0.058 | G -0.628 ± 0.053 | L -0.01 ± 0.038 | E -0.674 ± 0.17 | P -0.713 ± 0.11 | N -0.099 ± 0.11 | W -0.111 ± 0.07 | K 0.003 ± 0.089 | M -0.082 ± 0.067 | Q -0.302 ± 0.077 | R 0.029 ± 0.036
E42: H -0.419 ± 0.13 | L -0.218 ± 0.082 | T -0.185 ± 0.12 | W -0.313 ± 0.1 | A 0.006 ± 0.1 | Q -0.12 ± 0.11 | Y -0.567 ± 0.18 | N -0.078 ± 0.24 | M -0.02 ± 0.1 | V -0.159 ± 0.079 | S -0.05 ± 0.073 | I -0.026 ± 0.1 | C -0.201 ± 0.1 | D -0.298 ± 0.13 | P -0.981 ± 0.21 | K -0.011 ± 0.14 | F -0.569 ± 0.2 | R -0.099 ± 0.066
P51: M 0.004 ± 0.11 | S -0.56 ± 0.076 | F -0.677 ± 0.38 | R -0.032 ± 0.05 | V -0.974 ± 0.21 | N -0.582 ± 0.16 | E -0.573 ± 0.19 | H -0.866 ± 0.3 | D -0.487 ± 0.15 | K 0.152 ± 0.13 | G -0.893 ± 0.096 | I -0.49 ± 0.14 | A -0.447 ± 0.087 | C -0.923 ± 0.25 | W -0.533 ± 0.071 | L -0.377 ± 0.068 | Q -0.137 ± 0.1
A55: E -0.726 ± 0.13 | M -0.886 ± 0.2 | F -0.492 ± 0.19 | C -0.058 ± 0.096 | T -0.149 ± 0.093 | L -0.573 ± 0.068 | H -1.01 ± 0.3 | I -0.274 ± 0.13 | K -0.92 ± 0.17 | Y -0.919 ± 0.33 | G -0.322 ± 0.093 | V 0.034 ± 0.078 | R -1.07 ± 0.17 | W -0.623 ± 0.086 | S -0.505 ± 0.077 | D -0.671 ± 0.14 | P -0.738 ± 0.14
Q57: K -0.188 ± 0.074 | Y -0.463 ± 0.11 | A -0.023 ± 0.061 | C -0.139 ± 0.1 | E -0.016 ± 0.06 | L -0.046 ± 0.041 | I -0.006 ± 0.093 | N -0.077 ± 0.19 | V -0.058 ± 0.048 | W -0.532 ± 0.095 | F -0.295 ± 0.18 | D -0.097 ± 0.14 | R -0.155 ± 0.05 | H -0.051 ± 0.15 | T -0.024 ± 0.066 | S -0.182 ± 0.072
L43: R -0.214 ± 0.072 | Y -0.294 ± 0.13 | M -0.219 ± 0.065 | I -0.004 ± 0.14 | K -0.156 ± 0.073 | E -0.703 ± 0.14 | T -0.505 ± 0.096 | C -0.26 ± 0.16 | D -0.458 ± 0.18 | S -0.411 ± 0.071 | P -0.701 ± 0.2 | W -0.605 ± 0.14 | Q -0.682 ± 0.13 | N -0.468 ± 0.17 | G -0.766 ± 0.13 | F -0.475 ± 0.091 | A -0.285 ± 0.062 | V -0.308 ± 0.078 | H -0.522 ± 0.25
F54: V 0.011 ± 0.053 | L 0.037 ± 0.06 | A 0.162 ± 0.062 | H -0.018 ± 0.1 | K 0.044 ± 0.081 | Q -0.347 ± 0.13 | I -0.191 ± 0.11 | C 0.084 ± 0.17 | T -0.088 ± 0.076 | P -0.572 ± 0.12 | E -0.632 ± 0.13 | N -0.625 ± 0.3 | R -0.004 ± 0.069 | G -0.32 ± 0.091 | S 0.099 ± 0.067 | W -0.296 ± 0.13 | M -0.079 ± 0.08
G41: C -1.07 ± 0.35 | H -0.746 ± 0.25 | F -0.949 ± 0.23 | D -0.616 ± 0.18 | I -1.08 ± 0.36 | Q -0.657 ± 0.12 | R -0.909 ± 0.11 | T -0.636 ± 0.1 | N -0.881 ± 0.22 | Y -0.938 ± 0.23 | L -0.747 ± 0.07 | V -1.06 ± 0.17 | W -1.14 ± 0.29 | P -0.605 ± 0.19 | A -0.703 ± 0.12 | M -1.01 ± 0.17 | S -0.71 ± 0.083
N53: L -0.133 ± 0.059 | K 0.133 ± 0.18 | W -0.355 ± 0.14 | T 0.027 ± 0.065 | C -0.138 ± 0.044 | H -0.032 ± 0.065 | D -0.094 ± 0.062 | R 0.038 ± 0.055 | P -0.365 ± 0.084 | S 0.012 ± 0.042 | Y -0.084 ± 0.054 | V -0.185 ± 0.049 | M -0.198 ± 0.09 | F -0.14 ± 0.059 | I -0.193 ± 0.054 | Q -0.051 ± 0.092 | A -0.003 ± 0.052 | E -0.036 ± 0.11
R40: H -0.296 ± 0.09 | Y -0.195 ± 0.12 | F -0.16 ± 0.091 | S -0.609 ± 0.066 | D -0.546 ± 0.099 | K 0.014 ± 0.066 | I -0.547 ± 0.11 | C -0.332 ± 0.07 | W -0.377 ± 0.067 | N -0.706 ± 0.17 | A -0.426 ± 0.065 | Q -0.3 ± 0.071 | E -0.604 ± 0.09 | L -0.009 ± 0.05 | V -0.513 ± 0.069
W39: V -0.519 ± 0.087 | M -0.278 ± 0.1 | Q -0.661 ± 0.2 | R -0.547 ± 0.06 | Y -0.579 ± 0.11 | K -0.536 ± 0.13 | L -0.532 ± 0.11 | I -0.851 ± 0.17 | H -0.623 ± 0.14 | P -0.724 ± 0.2 | N -0.734 ± 0.14 | T -0.696 ± 0.1
F50: C -0.516 ± 0.16 | M -0.845 ± 0.14 | K -0.993 ± 0.17 | R -0.614 ± 0.066 | S -0.818 ± 0.11 | A -0.539 ± 0.082 | W -0.792 ± 0.11 | I -0.822 ± 0.2 | T -0.705 ± 0.12 | L -0.668 ± 0.07 | D -0.626 ± 0.13 | P -0.973 ± 0.24 | V -0.674 ± 0.086 | Q -0.732 ± 0.12 | N -0.809 ± 0.36
